The text below walks through data of article PMC5014329.

Assay [1] deals with M2 (amino acids 42–141) (Streptococcus pyogenes (group A Streptococcus), strain M2 (AP2)). Briefly: crystal structure.
Assay [2] has as its target M22 (42–120) (Streptococcus pyogenes (group A Streptococcus), strain M22 (Sir22)). The assay can be described thus: crystal structure.

Substance “M2 (amino acids 42–141) (domain or fragment)” yielded a stoichiometry N in assay [1] of 2.

Turning to M22 (42–120) (domain or fragment), the stoichiometry N in assay [2] was 2.

For orientation: stoichiometry N means the number of molecules, sites or subunits per partner or assembly.
